Results reported in the supplement of paper PMC9732359.
± gives the uncertainty stated by the source.

Assay: protein stability index of a GFP-peptide fusion (yeast GPS) (PSI 1-4); higher = more stable; sorted into four equal gates, so the index is relative within each strain
Method in brief: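 Tiled 17-residue yeast protein peptides were fused downstream of GFP in a plasmid that also expresses Cherry, and the pooled library was carried in yeast. Mid-log cultures in leucine-free medium were sorted into four equal gates by GFP/Cherry fluorescence ratio, and plasmids from each gate were PCR-amplified and Illumina-sequenced, with reads assigned to strains by barcodes. The protein stability index for each peptide was each gate's read frequency times its gate number, summed.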

In the case of LSLTTVPCDRIEKSRLF [SNF6], the protein stability index (doa10∆) is reported as 2.51 ± 0.065, the protein stability index (pdr5∆) is reported as 2.64 ± 0.076 and the protein stability index (san1∆) is reported as 2.66 ± 0.053. It also gave a protein stability index (ubr1∆) of 2.29 ± 0.044.

For EGNAQLVAIFGGQGNTD [FAS1], the protein stability index (doa10∆) was 1.45 ± 0.067, the protein stability index (pdr5∆) was 1.94 ± 0.094 and the protein stability index (san1∆) was 2.13 ± 0.13. For the same sequence, the protein stability index (ubr1∆) was 1.05 ± 0.091.

With AIIVAGVQSNGDQFLRY [PRE4] the protein stability index (doa10∆) was 2.74 ± 0.095, the protein stability index (pdr5∆) was 2.83 ± 0.073 and the protein stability index (san1∆) was 2.4 ± 0.13. For the same sequence, the protein stability index (ubr1∆) was 2.28 ± 0.061.

With SSSKQQSRLFINELVLE [SMC4] the protein stability index (doa10∆) was 3.02 ± 0.14, the protein stability index (pdr5∆) was 2.95 ± 0.1 and the protein stability index (san1∆) was 2.58 ± 0.16. The protein stability index (ubr1∆) was 3.05 ± 0.085.

Sequence ESKSLLNLFSNVLKAPF [SIR4] has a protein stability index (doa10∆) of 2.39 ± 0.086, a protein stability index (pdr5∆) of 2.16 ± 0.13 and a protein stability index (san1∆) of 1.56 ± 0.21. For the same sequence, the protein stability index (ubr1∆) was 2.48 ± 0.077.

In the case of TRAAKIAPRPLDLLRPV [RPL13A], the protein stability index (doa10∆) is reported as 2.95 ± 0.091, the protein stability index (pdr5∆) is reported as 3.27 ± 0.11 and the protein stability index (san1∆) is reported as 3.15 ± 0.081. The protein stability index (ubr1∆) was 2.89 ± 0.054.

Sequence KGLETIDNGAESSENEA [RPC53] has a protein stability index (doa10∆) of 3.24 ± 0.13, a protein stability index (pdr5∆) of 3.44 ± 0.13 and a protein stability index (san1∆) of 3.14 ± 0.1. For the same sequence, the protein stability index (ubr1∆) was 3.12 ± 0.094.

ANAAKRAEAKAQGVAVQ [RPL21A] gave a protein stability index (doa10∆) of 2.55 ± 0.13, a protein stability index (pdr5∆) of 1.96 ± 0.13 and a protein stability index (san1∆) of 2.06 ± 0.28. The protein stability index (ubr1∆) was 1.92 ± 0.14.

For DVKLLNPIDIKRRFGEL [RPP1], the protein stability index (doa10∆) was 2.46 ± 0.089, the protein stability index (pdr5∆) was 2.7 ± 0.078 and the protein stability index (san1∆) was 2.38 ± 0.14. For the same sequence, the protein stability index (ubr1∆) was 2.97 ± 0.047.

With KLPKVYKRSIVRNYKPL [SWI1] the protein stability index (doa10∆) was 2.8 ± 0.086, the protein stability index (pdr5∆) was 2.99 ± 0.089 and the protein stability index (san1∆) was 2.89 ± 0.074. For the same sequence, the protein stability index (ubr1∆) was 2.96 ± 0.12.

PNIFPNLTYYNEKLECI [ITC1] gave a protein stability index (doa10∆) of 2.6 ± 0.07, a protein stability index (pdr5∆) of 2.58 ± 0.067 and a protein stability index (san1∆) of 2.59 ± 0.056. The protein stability index (ubr1∆) was 2.68 ± 0.05.

With LNSFVNDIFERIATEAS [HTB1] the protein stability index (doa10∆) was 2.95 ± 0.11, the protein stability index (pdr5∆) was 2.89 ± 0.091 and the protein stability index (san1∆) was 2.63 ± 0.1. The protein stability index (ubr1∆) was 2.96 ± 0.061.

AHIAKNLINLSIGASIA [YCS4] gave a protein stability index (doa10∆) of 1.34 ± 0.068, a protein stability index (pdr5∆) of 1.37 ± 0.072 and a protein stability index (san1∆) of 1.94 ± 0.17. The protein stability index (ubr1∆) was 1.78 ± 0.057.

RADTMDFKTDVDEPMTS [YJL039C/NUP192] showed a protein stability index (doa10∆) of 3.26 ± 0.087, a protein stability index (pdr5∆) of 3.28 ± 0.089 and a protein stability index (san1∆) of 3.25 ± 0.11. It also gave a protein stability index (ubr1∆) of 3.3 ± 0.066.

In the case of KDIAKRQFKEILTVKEE [RRP40], the protein stability index (doa10∆) is reported as 2.2 ± 0.045, the protein stability index (pdr5∆) is reported as 2.4 ± 0.048 and the protein stability index (san1∆) is reported as 2.46 ± 0.057. For the same sequence, the protein stability index (ubr1∆) was 2.52 ± 0.042.

Sequence YGTRPLVLPPVVTSSVA [SNF2] has a protein stability index (doa10∆) of 2.04 ± 0.086, a protein stability index (pdr5∆) of 2.06 ± 0.071 and a protein stability index (san1∆) of 1.76 ± 0.12. It also gave a protein stability index (ubr1∆) of 1.94 ± 0.051.

In the case of DSTQLLETILEEFRNLA [SSN2], the protein stability index (doa10∆) is reported as 2.69 ± 0.076, the protein stability index (pdr5∆) is reported as 3.18 ± 0.065 and the protein stability index (san1∆) is reported as 2.85 ± 0.055. The protein stability index (ubr1∆) was 3.2 ± 0.054.

Work on LKKLKAMNDACYEKVLE [BRR2] yielded a protein stability index (doa10∆) of 3.18 ± 0.074, a protein stability index (pdr5∆) of 3.26 ± 0.061 and a protein stability index (san1∆) of 3.12 ± 0.039. It also gave a protein stability index (ubr1∆) of 3.05 ± 0.058.

ETFSTSAHQSPIMQTQM [SNF2] showed a protein stability index (doa10∆) of 3.17 ± 0.077, a protein stability index (pdr5∆) of 2.8 ± 0.072 and a protein stability index (san1∆) of 3.28 ± 0.062. It also gave a protein stability index (ubr1∆) of 3.15 ± 0.04.

Work on LVILKPDLNIDRNNSTN [SIN4] yielded a protein stability index (doa10∆) of 2.73 ± 0.057, a protein stability index (pdr5∆) of 2.23 ± 0.064 and a protein stability index (san1∆) of 2.56 ± 0.065. It also gave a protein stability index (ubr1∆) of 2.67 ± 0.041.

RLELLQLSPVKNSRVEL [SMC4] gave a protein stability index (pdr5∆) of 3.54 ± 0.25 and a protein stability index (san1∆) of 3.22 ± 0.13.

With EEGEYKNAANTEGHKGH [ISW2] the protein stability index (doa10∆) was 3.31 ± 0.062, the protein stability index (pdr5∆) was 3.16 ± 0.069 and the protein stability index (san1∆) was 3.31 ± 0.064. The protein stability index (ubr1∆) was 3.21 ± 0.053.

For GWKPYYKLFIWLVVPTI [YML031W/NDC1], the protein stability index (doa10∆) was 1.28 ± 0.049, the protein stability index (pdr5∆) was 1.2 ± 0.044 and the protein stability index (san1∆) was 1.19 ± 0.09. The protein stability index (ubr1∆) was 1.16 ± 0.044.

NNVVINFKDMSHVNKYG [PRP8] gave a protein stability index (doa10∆) of 2.64 ± 0.1, a protein stability index (pdr5∆) of 2.6 ± 0.079 and a protein stability index (san1∆) of 2.75 ± 0.059. It also gave a protein stability index (ubr1∆) of 2.57 ± 0.075.

Work on VFPSSILDITDEELVSH [RPP0] yielded a protein stability index (doa10∆) of 2.89 ± 0.067, a protein stability index (pdr5∆) of 2.94 ± 0.1 and a protein stability index (san1∆) of 3.26 ± 0.068. It also gave a protein stability index (ubr1∆) of 2.99 ± 0.065.

ENYSAMIFETIVDGKLK [FAS1] gave a protein stability index (pdr5∆) of 3.24 ± 0.22, a protein stability index (san1∆) of 2.98 ± 0.13 and a protein stability index (ubr1∆) of 3.09 ± 0.16.

Sequence SWVQPRIISGDQITKMK [RPN9] has a protein stability index (doa10∆) of 3.76 ± 0.26, a protein stability index (pdr5∆) of 3.27 ± 0.12 and a protein stability index (san1∆) of 2.94 ± 0.14. For the same sequence, the protein stability index (ubr1∆) was 3.56 ± 0.2.

LLAQLNGTVNNNSALSN [RPT3] gave a protein stability index (doa10∆) of 3.23 ± 0.25, a protein stability index (pdr5∆) of 2.25 ± 0.14 and a protein stability index (san1∆) of 1.88 ± 0.097. For the same sequence, the protein stability index (ubr1∆) was 2.34 ± 0.075.

With KLLAKELEEQESESERK [SMC2] the protein stability index (doa10∆) was 2.71 ± 0.13, the protein stability index (pdr5∆) was 3.23 ± 0.089 and the protein stability index (san1∆) was 2.46 ± 0.16. The protein stability index (ubr1∆) was 3.14 ± 0.1.

ADVSIKSILQEIRRSLS [POP5] gave a protein stability index (doa10∆) of 1.59 ± 0.08, a protein stability index (pdr5∆) of 2.66 ± 0.083 and a protein stability index (san1∆) of 2.44 ± 0.14. For the same sequence, the protein stability index (ubr1∆) was 1.32 ± 0.06.

MKVEELIIDGFKSYATR [SMC2] showed a protein stability index (doa10∆) of 3.45 ± 0.19, a protein stability index (pdr5∆) of 3.21 ± 0.08 and a protein stability index (san1∆) of 3.11 ± 0.063. For the same sequence, the protein stability index (ubr1∆) was 3.22 ± 0.096.

Sequence DVIHFEDSSILQSIVNE [PCI8] has a protein stability index (doa10∆) of 3.21 ± 0.089, a protein stability index (pdr5∆) of 3.06 ± 0.076 and a protein stability index (san1∆) of 3.04 ± 0.05. It also gave a protein stability index (ubr1∆) of 3.47 ± 0.073.

With KVFDTLTRFSHDADLEV [RPN1] the protein stability index (doa10∆) was 2.44 ± 0.073, the protein stability index (pdr5∆) was 2.31 ± 0.054 and the protein stability index (san1∆) was 2.44 ± 0.063. It also gave a protein stability index (ubr1∆) of 2.67 ± 0.047.

Sequence NSLIEEINERSETQTKD [YCG1] has a protein stability index (doa10∆) of 3.07 ± 0.12, a protein stability index (pdr5∆) of 3.33 ± 0.12 and a protein stability index (san1∆) of 3.17 ± 0.087. The protein stability index (ubr1∆) was 2.97 ± 0.1.

In the case of EDAFNFWFDKLVTKILP [YCG1], the protein stability index (doa10∆) is reported as 1.94 ± 0.21, the protein stability index (pdr5∆) is reported as 2.5 ± 0.14 and the protein stability index (san1∆) is reported as 2.88 ± 0.12. The protein stability index (ubr1∆) was 2.94 ± 0.11.

GNRNSSSVFLPSRKDCM [BRR2] gave a protein stability index (doa10∆) of 3.18 ± 0.086, a protein stability index (pdr5∆) of 3.16 ± 0.071 and a protein stability index (san1∆) of 3.2 ± 0.057. The protein stability index (ubr1∆) was 3.22 ± 0.074.

ISNINIPISSETTIDDL [SMC1] showed a protein stability index (pdr5∆) of 2.69 ± 0.17 and a protein stability index (ubr1∆) of 1.85 ± 0.071.

For NDDALDLDLDLFDPDDF [MED4], the protein stability index (doa10∆) was 2.88 ± 0.045, the protein stability index (pdr5∆) was 3.04 ± 0.068 and the protein stability index (san1∆) was 2.81 ± 0.036. For the same sequence, the protein stability index (ubr1∆) was 3.07 ± 0.032.

SEEIDSLNEDVEEIKLQ [SMC2] gave a protein stability index (doa10∆) of 3.19 ± 0.12, a protein stability index (pdr5∆) of 3.41 ± 0.14 and a protein stability index (san1∆) of 2.94 ± 0.097. The protein stability index (ubr1∆) was 3.25 ± 0.077.

With PEGYKAKSISTSAKEPS [RPO31] the protein stability index (doa10∆) was 1.39 ± 0.085, the protein stability index (pdr5∆) was 1.51 ± 0.077 and the protein stability index (san1∆) was 1.45 ± 0.19. It also gave a protein stability index (ubr1∆) of 1.86 ± 0.09.
